This note sets out measurements from patent publication US20240261333A1 (published 2024).

One assay deals with T1, POF1B (UniProt Q8WVV4-1 1-595, limits assumed).
T1 construct: also called NP_001294869.1 (+2)
T1 sequence (looked up): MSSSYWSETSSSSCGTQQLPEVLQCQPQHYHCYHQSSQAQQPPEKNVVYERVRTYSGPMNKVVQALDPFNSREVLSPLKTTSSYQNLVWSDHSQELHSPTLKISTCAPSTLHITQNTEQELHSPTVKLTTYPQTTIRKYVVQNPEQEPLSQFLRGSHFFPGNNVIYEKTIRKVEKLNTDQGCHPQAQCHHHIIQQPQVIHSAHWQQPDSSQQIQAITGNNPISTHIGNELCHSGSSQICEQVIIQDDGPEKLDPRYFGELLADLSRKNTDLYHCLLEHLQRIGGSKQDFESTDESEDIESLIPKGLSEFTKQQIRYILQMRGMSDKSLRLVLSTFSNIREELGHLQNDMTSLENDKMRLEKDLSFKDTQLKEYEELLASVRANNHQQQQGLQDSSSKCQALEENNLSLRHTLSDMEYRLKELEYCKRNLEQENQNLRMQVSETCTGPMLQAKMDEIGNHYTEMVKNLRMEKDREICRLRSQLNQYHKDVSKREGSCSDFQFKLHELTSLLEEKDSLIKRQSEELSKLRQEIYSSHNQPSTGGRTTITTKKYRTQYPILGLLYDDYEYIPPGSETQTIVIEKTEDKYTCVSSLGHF
Briefly: co-IP, anti-FLAG, C-FLAG B3GNT2 cell lysate, mass spectrometry. The method, then: (§1) Cells were plated in 10-cm cell culture dishes and grown to 60-80% confluency. For each condition, two biological replicates were harvested for co-IP. Cells were washed with PBS and 4 mL of lysis buffer (20 mM HEPES, 1% Triton X-100, 150 mM NaCl, 1 mM EDTA, and 10% glycerol) containing protease inhibitor cocktail was added. Cells were scraped and lysate was incubated at 4° C. under rotary agitation for 1 h. Lysate was centrifuged at 14,000×g for 10 min at 4° C. Supernatant was transferred to a new tube and an aliquot was taken as the input. […] For Western blots, 10 μg/mL Chicken Anti-FLAG (Aves labs ET-DY100) and IgY control (R&D Systems AB-101-C) antibodies were biotinylated (Thermo Fisher Scientific 90407) and added to the respective conditions. Lysates with antibodies were incubated at 4° C. under rotary agitation overnight. For each mL of lysate, 50 μL of Pierce Protein A/G Magnetic Beads (Mass spectrometry; Thermo Fisher Scientific 88803) or Pierce Streptavidin Magnetic Beads (Western blot; Thermo Fisher Scientific 88817) was washed twice with lysis buffer. Lysates with antibodies were added to the beads and incubated at 4° C. under rotary agitation for 4 h. Beads were washed with lysis buffer 3 times and resuspended in lysis buffer for storage.
(§2) Magnetic beads were resuspended in 100 mM Tris pH 7.8, reduced, alkylated and digested with trypsin at 37° ° C. overnight. This solution was subjected to solid phase extraction to concentrate the peptides and remove unwanted reagents followed by injection onto a Shimadzu HPLC with fraction collector. Eight fractions were collected and after concentration were injected on a Waters NanoAcquity HPLC equipped with a self-packed Aeris 3 μm C18 analytical column 0.075 mm by 20 cm, (Phenomenex). Peptides were eluted using standard reverse-phase gradients. The effluent from the column was analyzed using a Thermo Orbitrap Elite mass spectrometer (nanospray configuration) operated in a data dependent manner for 54 minutes. The resulting fragmentation spectra were correlated against the known database using Proteome Discover 1.4 (Thermo Fisher Scientific).

For a further assay, the target named is RPS2 (UniProt P15880 2-293). Described as above. The method, then:
as §1, §2

The next assay addresses RPS13 (UniProt P62277 2-151). The description is as above. The method, then: as §1, §2
The target of a further assay is T2, DEFA3 (UniProt P59666 65-94, limits assumed).
T2 construct: also called NP_005208.1 (+1)
The assay is described as above. The method, then:
as §1, §2

For another assay, the target named is T3, ARG1 (UniProt P05089 1-322).
T3 construct: also called NP_000036.2 (+1)
T3 sequence (looked up): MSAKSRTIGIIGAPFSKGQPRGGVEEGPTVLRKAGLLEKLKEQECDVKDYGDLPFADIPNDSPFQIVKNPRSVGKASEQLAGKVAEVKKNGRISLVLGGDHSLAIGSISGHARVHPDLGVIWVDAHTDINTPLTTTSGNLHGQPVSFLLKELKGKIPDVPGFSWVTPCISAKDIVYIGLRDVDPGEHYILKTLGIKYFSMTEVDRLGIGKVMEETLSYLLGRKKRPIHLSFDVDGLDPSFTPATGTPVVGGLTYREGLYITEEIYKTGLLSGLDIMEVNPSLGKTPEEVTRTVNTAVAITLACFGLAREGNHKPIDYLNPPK
The description is as above. The method, then:
as §1, §2

The target in the next assay is RPS18 (UniProt P62269 2-152). The assay is described as above. The method, then: as §1, §2
In another assay the target is T4, CFL1 (UniProt P23528 2-166).
T4 construct: also called NP_005498.1
The assay is described as above. The method, then:
as §1, §2

The target of a further assay is RPS23 (UniProt P62266 2-143). Described as above. The method, then:
as §1, §2

The target in the next assay is T5, EMD (UniProt P50402 1-254).
T5 construct: also called NP_000108.1
T5 sequence (looked up): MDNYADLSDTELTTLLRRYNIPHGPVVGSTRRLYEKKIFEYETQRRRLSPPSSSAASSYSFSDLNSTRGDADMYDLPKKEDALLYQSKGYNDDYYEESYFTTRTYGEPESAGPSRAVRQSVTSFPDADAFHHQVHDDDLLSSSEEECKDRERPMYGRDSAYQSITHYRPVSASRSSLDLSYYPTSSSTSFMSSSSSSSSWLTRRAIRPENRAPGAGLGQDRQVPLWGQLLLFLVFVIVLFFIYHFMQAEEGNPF
The description is as above. The method, then: as §1, §2

For the next assay, the target named is T6, TMEM59 (UniProt Q9BXS4 36-323, limits assumed).
T6 construct: also called NP_001291972.1
T6 sequence (looked up): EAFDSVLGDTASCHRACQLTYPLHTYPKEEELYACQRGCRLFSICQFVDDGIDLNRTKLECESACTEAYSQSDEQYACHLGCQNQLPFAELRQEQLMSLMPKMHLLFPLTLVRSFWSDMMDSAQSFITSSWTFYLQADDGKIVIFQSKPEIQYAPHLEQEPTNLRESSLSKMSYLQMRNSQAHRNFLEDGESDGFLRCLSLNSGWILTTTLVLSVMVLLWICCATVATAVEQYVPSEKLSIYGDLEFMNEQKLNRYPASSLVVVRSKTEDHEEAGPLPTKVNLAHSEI
The assay is described as above. The method, then: as §1, §2

For another assay, the target named is T7, CDSN (UniProt Q15517 33-529, limits assumed).
T7 construct: also called NP_001255.4
T7 sequence (looked up): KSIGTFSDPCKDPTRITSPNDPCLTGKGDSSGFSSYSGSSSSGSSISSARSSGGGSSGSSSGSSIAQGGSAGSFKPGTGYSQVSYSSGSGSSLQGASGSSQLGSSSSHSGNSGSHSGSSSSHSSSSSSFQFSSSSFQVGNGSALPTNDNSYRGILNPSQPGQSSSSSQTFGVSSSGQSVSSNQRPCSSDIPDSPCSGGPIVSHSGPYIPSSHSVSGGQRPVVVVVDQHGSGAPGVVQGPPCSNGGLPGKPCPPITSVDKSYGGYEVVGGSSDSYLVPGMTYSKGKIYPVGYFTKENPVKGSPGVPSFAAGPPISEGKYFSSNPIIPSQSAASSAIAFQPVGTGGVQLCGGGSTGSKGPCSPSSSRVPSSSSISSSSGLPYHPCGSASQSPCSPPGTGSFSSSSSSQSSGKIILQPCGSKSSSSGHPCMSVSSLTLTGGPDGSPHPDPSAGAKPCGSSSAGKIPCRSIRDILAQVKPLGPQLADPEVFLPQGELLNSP
Described as above. The method, then: as §1, §2

For assay [1], the target named is T8, CD276, endogenous in A375 melanoma cells (human, UniProt Q5ZPR3 29-534, poly-LacNAc glycosylation added by B3GNT2 (sites not given)).
T8 construct: whole, on cells; On fixed A375 cells in flow cytometry; In the co-IP it comes from the lysate of these cells; also called B7H3
T8 sequence (looked up): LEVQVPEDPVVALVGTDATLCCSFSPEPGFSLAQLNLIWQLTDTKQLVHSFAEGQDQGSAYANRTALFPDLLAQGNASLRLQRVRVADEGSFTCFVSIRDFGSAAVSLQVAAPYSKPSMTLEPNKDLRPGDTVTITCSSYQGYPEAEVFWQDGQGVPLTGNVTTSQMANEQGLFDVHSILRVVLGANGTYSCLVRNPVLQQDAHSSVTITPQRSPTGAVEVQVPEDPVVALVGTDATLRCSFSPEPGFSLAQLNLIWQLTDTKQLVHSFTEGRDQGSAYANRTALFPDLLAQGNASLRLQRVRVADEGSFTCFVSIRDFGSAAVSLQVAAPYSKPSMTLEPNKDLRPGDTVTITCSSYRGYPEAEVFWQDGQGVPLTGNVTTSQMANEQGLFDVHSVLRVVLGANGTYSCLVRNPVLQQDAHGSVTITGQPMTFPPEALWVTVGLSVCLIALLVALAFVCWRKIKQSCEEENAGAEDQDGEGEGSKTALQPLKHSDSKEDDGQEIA
The assay is described as follows: flow cytometry of TREML2 Fc chimera on fixed A375 cells with CD276 knocked down by CRISPR.

T4 sequence (P23528 2-166 limits assumed): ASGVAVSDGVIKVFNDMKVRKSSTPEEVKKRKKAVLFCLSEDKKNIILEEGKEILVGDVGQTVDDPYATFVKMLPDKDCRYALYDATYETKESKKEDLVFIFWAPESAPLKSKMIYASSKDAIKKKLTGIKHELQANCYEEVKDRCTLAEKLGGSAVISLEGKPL
T2 sequence (P59666 65-94 limits assumed): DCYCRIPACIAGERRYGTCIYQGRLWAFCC

B1: C-terminal FLAG tagged B3GNT2 (enzyme, human, UniProt Q9NY97 1-397, looked up)
chain: MSVGRRRIKLLGILMMANVFIYFIMEVSKSSSQEKNGKGEVIIPKEKFWKISTPPEAYWNREQEKLNRQYNPILSMLTNQTGEAGRLSNISHLNYCEPDLRVTSVVTGFNNLPDRFKDFLLYLRCRNYSLLIDQPDKCAKKPFLLLAIKSLTPHFARRQAIRESWGQESNAGNQTVVRVFLLGQTPPEDNHPDLSDMLKFESEKHQDILMWNYRDTFFNLSLKEVLFLRWVSTSCPDTEFVFKGDDDVFVNTHHILNYLNSLSKTKAKDLFIGDVIHNAGPHRDKKLKYYIPEVVYSGLYPPYAGGGGFLYSGHLALRLYHITDQVHLYPIDDVYTGMCLQKLGLVPEKHKGFRTFDIEEKNKNNICSYVDLMLVHSRKPQEMIDIWSQLQSAHLKC
notes: Bait of the co-IP; pulled down with mouse anti-FLAG from cell lysate; also called C-FLAG B3GNT2; C-term flag; not shown: FLAG tag at the C-terminus
On to B1, for which the “co-IP mass spectrometry count” value was 0 with POF1B; 24 in the assay with RPS2; 4 in the assay with RPS13; 8 with DEFA3; 6 in the assay with ARG1; 18 with RPS18. In addition, the “co-IP mass spectrometry count” value came to 6 with CFL1; 16 in the assay with RPS23; 2 with EMD; 0 with TMEM59; 0 in the assay with CDSN.

B2: TREML2 recombinant Fc chimera protein (R&D Systems 3259-TL-050) (Fc fusion, UniProt Q5T2D2 19-268, looked up)
chain: GPSADSVYTKVRLLEGETLSVQCSYKGYKNRVEGKVWCKIRKKKCEPGFARVWVKGPRYLLQDDAQAKVVNITMVALKLQDSGRYWCMRNTSGILYPLMGFQLDVSPAPQTERNIPFTHLDNILKSGTVTTGQAPTSGPDAPFTTGVMVFTPGLITLPRLLASTRPASKTGYSFTATSTTSQGPRRTMGSQTVTASPSNARDSSAGPESISTKSGDLSTRSPTTGLCLTSRSLLNRLPSMPSIRHQDVYS
notes: Bought reagent; also called TLT2; Fc part of the bought chimera not given
For the molecule B2, the binding result in [1] is “no binding (tested: 25 µg/mL)”.
